Legend:
[1] = tested on: T1, LEKTI Domain 6 (ct His6 tag)
T1 sequence: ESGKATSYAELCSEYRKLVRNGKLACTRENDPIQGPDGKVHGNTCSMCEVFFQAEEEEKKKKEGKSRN

[2] = tested on: T2, recombinantly produced LEKTI Domain 6
T2 sequence: T1 sequence

trypsin
trypsin activity (L-BAPNA substrate, 405 nm) [1]: recombinantly produced LEKTI Domain 6 (ct His6 tag) inhibits trypsin in vitro compared to LEKTI domains 10-15
Trypsin activity (rate of change in the absorbance at 405 nm, L-BAPNA cleavage, per minute) [2]: LEKTI Domain 6 inhibited trypsin activity in vitro

Source: patent US20260193323
